By Km is commonly meant the concentration of substrate that gives half-maximal velocity.

Assay type in all cases: functional, cell-based
Holding throughout (settings): Oocyte

Substrate in data set [1]: CC(=O)C(=O)O
Briefly: (§1) TP_TRANSPORTER: change in intracellular pH(pHi)value in Xenopus laevis oocytes.

Substrate in data set [2]: CC(C)C(=O)C(=O)O
The data set is described as §1.

Substrate in data set [3]: CC(C)CC(=O)C(=O)O
The data set is described as §1.

Substrate in data set [4]: C[C@@H](O)C(=O)O
The description is as §1.

B1: Monocarboxylate transporter 1 (Rattus norvegicus), P53987 (protein)
chain: MPPAIGGPVGYTPPDGGWGWAVVVGAFISIGFSYAFPKSITVFFKEIEIIFSATTSEVSWISSIMLAVMYAGGPISSILVNKYGSRPVMIAGGCLSGCGLIAASFCNTVQELYFCIGVIGGLGLAFNLNPALTMIGKYFYKKRPLANGLAMAGSPVFLSTLAPLNQAFFGIFGWRGSFLILGGLLLNCCVAGSLMRPIGPQQGKVEKLKSKESLQEAGKSDANTDLIGGSPKGEKLSVFQTVNKFLDLSLFTHRGFLLYLSGNVVMFFGLFTPLVFLSNYGKSKHFSSEKSAFLLSILAFVDMVARPSMGLAANTRWIRPRVQYFFAASVVANGVCHLLAPLSTTYVGFCIYAGVFGFAFGWLSSVLFETLMDLVGPQRFSSAVGLVTIVECCPVLLGPPLLGRLNDMYGDYKYTYWACGVILIIAGLYLFIGMGINYRLVAKEQKAEEKKRDGKEDETSTDVDEKPKKTMKETQSPAPLQNSSGDPAEEESPV
In the case of B1, the Michaelis-Menten constant (Km) in data set [1] was found to be 1010 µM; in data set [2] it was 1250 µM; in data set [3] it was 670 µM; in data set [4], 3500 µM.

For the origin of these results see ChEMBL document CHEMBL2074082, “Characterization of the monocarboxylate transporter 1 expressed in Xenopus laevis oocytes by changes in cytosolic pH” (Biochem J, 1998).
